The source of these data is publication PMC6009700.

Like-named read-outs stand apart in the source and are kept apart here.

Data set [1] concerns the target T1, TubR (Clostridium botulinum prophage c-st, UniProt Q331T6 1-81).
T1 sequence: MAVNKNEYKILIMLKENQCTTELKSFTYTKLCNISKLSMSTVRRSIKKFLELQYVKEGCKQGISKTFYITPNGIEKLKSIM
The data set is described as follows: fluorescence anisotropy. A general note: Fluorescence polarisation rises when a labelled molecule tumbles more slowly, as on binding a larger partner.

In data set [2] the target is T1, TubR. Nature of the data set: fluorescence anisotropy. This is another data set of the same source.
For data set [3], the target named is T1, TubR. The data set is described as follows: EMSA. In general terms: In EMSA bound probe runs differently from free probe, usually more slowly.
For data set [4], the target named is T1, TubR. Nature of the data set: EMSA. The source holds these as a separate data set.

B1: SF3b (dsDNA)
DNA 1: TGAACATATAGTGAACATAATACAACTAGTACAAGAATGTAGTTTGACTAT
DNA 2: ATAGTCAAACTACATTCTTGTACTAGTTGTATTATGTTCACTATATGTTCA
With B1, the “apparent K (half saturation)” value in the data set with TubR [1] was 138 ± 7.7 nM.

B2: SF1b (dsDNA)
DNA 1: AAATAAACATGATATGAACATATATTGACTACAGTTTGACATAGTTTTGAC
DNA 2: GTCAAAACTATGTCAAACTGTAGTCAATATATGTTCATATCATGTTTATTT
With B2, the “apparent K (half saturation)” value with TubR [2] worked out at 184 ± 4.04 nM.

B3: SF3 (dsDNA)
DNA 1: GTTAATTGTAGCGTTAAGTGAGACATAGAATTGAACATATAGTGAACATAATACAACTAGTACAAGAATGTAGTTTGACTATAATTTGAACATATTTAGAATATACTTTGAATATAATTAGACTTAAACAAG
DNA 2: CTTGTTTAAGTCTAATTATATTCAAAGTATATTCTAAATATGTTCAAATTATAGTCAAACTACATTCTTGTACTAGTTGTATTATGTTCACTATATGTTCAATTCTATGTCTCACTTAACGCTACAATTAAC
Consider B3, for which the binding result with TubR [3] is “binds”.

B4: Shuffle DNA (dsDNA)
DNA 1: AATCGTAAAATATTACAATATAAGGTAACAAGATATTCCTTTTTGGAGCAT
DNA 2: ATGCTCCAAAAAGGAATATCTTGTTACCTTATATTGTAATATTTTACGATT
Consider B4, for which the binding result with TubR [3] is “no binding”.

B5: SF1 (dsDNA)
DNA 1: TAAGGAATATAGTATAATATAGTAAAGAAAGAAATAAACATGATATGAACATATATTGACTACAGTTTGACATAGTTTTGACTATGATATGAACAAAATAAGAATGTATTATGAATATTTTCTTACATTACTGCGACTACTATCAG
DNA 2: CTGATAGTAGTCGCAGTAATGTAAGAAAATATTCATAATACATTCTTATTTTGTTCATATCATAGTCAAAACTATGTCAAACTGTAGTCAATATATGTTCATATCATGTTTATTTCTTTCTTTACTATATTATACTATATTCCTTA
For the molecule B5, in the data set with TubR [3], the binding result is “binds”.

B6: CP1 (dsDNA)
DNA 1: TATAGTAAAGAAAGAAATAAACATGATATGAACATATATTGACTACAGTTTGACATAGTTTTGACTATGATATGAACAAAATAAGAATGTATTA
DNA 2: TAATACATTCTTATTTTGTTCATATCATAGTCAAAACTATGTCAAACTGTAGTCAATATATGTTCATATCATGTTTATTTCTTTCTTTACTATA
Consider B6, for which, in the data set with TubR [4], the binding result is “binds”.

B7: SF2 (dsDNA)
DNA 1: AGAATATACTTTGAATATAATTAGACTTAAACAAGATTACTTTTAGACTATAGTATAAATATAATTAGAAAATAATTTGAATAATTTATGAAAATAAGTACACATTTTCTAAGGAATATAGTATAATATAGTAAAGAAAGA
DNA 2: TCTTTCTTTACTATATTATACTATATTCCTTAGAAAATGTGTACTTATTTTCATAAATTATTCAAATTATTTTCTAATTATATTTATACTATAGTCTAAAAGTAATCTTGTTTAAGTCTAATTATATTCAAAGTATATTCT
As for B7, in the data set with TubR [3], the binding result is on record as “binds”.
